Columns and labels:
[1] = target: T1, human antithrombin (human, UniProt P01008 33-464); assay: cell-based or functional assay
[2] = target: T1, human antithrombin; assay: cell-based or functional assay; remark: listed apart in the source
[3] = target: T2, murine antithrombin (mouse, UniProt P32261 33-465); assay: ELISA, sdAb coated, plasma 1/4, bound antithrombin probed with polyclonal anti-antithrombin; grade by OD
T2 construct: also called mouse antithrombin; murine AT
Method: (§1) sdAbs KB-AT-001, -002. -003, -004, -005, -006, and -007 were immobilized (10 microgram/ml) in 10 mM NaHCO₃, 50 mM Na2CO3 (pH 9.5) in a volume of 50 microliter in half-well microtiter plates (Greiner Bio-One, Les Ulis, France) for 16 h at 4° C. As a positive control, polyclonal anti-antithrombin antibodies (MATIII-EIA kit, Affinity biologicals, Ancaster Canada) were immobilized in a similar fashion. As a negative control, the anti-von Willebrand sdAb KB-VWF-006 was immobilized. After washing the wells three times with 100 microliter/well using Tris-buffered saline (pH 7.6) supplemented with 0.1% Tween-20 (TBS-T), wells were blocked with 100 microliter/well of TBS-T supplemented with 3% bovine serum albumin (BSA) for 30 min at 37° C. Wells were washed as described above, and subsequently the following plasma preparations (diluted ¼ in TBS-T/3% BSA, 100 microliter per well, 2 hours at 37° C.) were added to each of the immobilized sdAbs and both types of control wells: rabbit plasma, canine plasma, simian plasma, bovine plasma, porcine plasma, rat plasma, murine plasma and human plasma.
(§2) Wells were then washed three times with 100 microliter/well using TBS-T. Bound antithrombin was probed with peroxidase-labeled polyclonal anti-antithrombin antibodies (MATIII-EIA kit, Affinity biologicals, Ancaster Canada; diluted 1/100) for 2 hours at 37° C. with 50 microliter per well. Wells were then washed three times with 100 microliter/well using TBS-T. Residual peroxidase activity was detected by measuring peroxidase-mediated hydrolysis of 3,3′,5,5′-tetramethylbenzidine.
(§3) Negative binding (−) was defined as optical density (OD) being ≤0.1, moderate positive binding (+) was defined as OD being >0.1 and <0.5, strongly positive binding (++) was defined as OD being ≥0.5. […] All plasma preparations had moderate or strongly positive binding to the positive control (polyclonal anti-antithrombin antibodies).

[4] = target: T1, human antithrombin; assay: as above
Method: as §1, §2, §3

[5] = target: T3, rabbit antithrombin (rabbit); assay: as above
T3 construct: Native protein in plasma diluted 1/4; also called rabbit AT; antithrombin in rabbit plasma
Method: as §1, §2, §3

[6] = target: T4, rat antithrombin (rat, UniProt Q8VHJ4); assay: as above
T4 construct: Native protein in plasma diluted 1/4; also called rat AT; antithrombin in rat plasma
Method: as §1, §2, §3

[7] = target: T5, simian antithrombin (simian); assay: as above
T5 construct: Native protein in plasma diluted 1/4; also called simian AT; antithrombin in simian plasma
Method: as §1, §2, §3

[8] = target: T1, human antithrombin; assay: BLI (Octet-QK), sdAb coupled to sensor, antithrombin 12.5-50 ug/ml; apparent KD
Method: The interaction between sdAbs KB-AT-001, KB-AT-002, KB-AT-003 and KB-AT-006 versus human antithrombin was further analyzed via biolayer-interferometry analysis using Octet-QK equipment in order to determine apparent dissociation constants (KD,app). To this end, sdAbs KB-AT-001, KB-AT-002, KB-AT-003 and KB-AT-006 were diluted in 0.1 M Mes (pH 5.0) to a concentration of 200 microgram/ml for coupling to EDC/NHS-activated amine-reactive biosensors (Fort6bio, Menlo Park, Calif., USA). Sensors were rehydrated in 0.2 ml 0.1 M MES, pH 5.0 for 300 sec. Sensors were then activated via incubation with 0.1 ml 0.2 M EDC/0.095 M NHS mixture for 300 sec and subsequently incubated with 0.1 ml sdAb-solution for 600 sec. […] Following this association phase, sensors were transferred to wells containing PBS-T and incubated for 900 sec, allowing dissociation of the antithrombin-sdAb complex. Obtained data were subsequently analyzed using Octet-QK data analysis software (Origin vs 4) to estimate KD,app.

[9] = target: T6, porcine antithrombin (porcine); assay: ELISA, sdAb coated, plasma 1/4, bound antithrombin probed with polyclonal anti-antithrombin
T6 construct: Native protein in plasma diluted 1/4; also called porcine AT; antithrombin in porcine plasma
Method: as §1, §2, §3

[10] = target: T7, canine antithrombin (canine); assay: as above
T7 construct: Native protein in plasma diluted 1/4; also called canine AT; antithrombin in canine plasma
Method: as §1, §2, §3

[11] = target: T8, bovine antithrombin (bovine, UniProt P41361 33-465); assay: as above
T8 construct: Native protein in plasma diluted 1/4; also called bovine AT; antithrombin in bovine plasma
T8 sequence (P41361 33-465): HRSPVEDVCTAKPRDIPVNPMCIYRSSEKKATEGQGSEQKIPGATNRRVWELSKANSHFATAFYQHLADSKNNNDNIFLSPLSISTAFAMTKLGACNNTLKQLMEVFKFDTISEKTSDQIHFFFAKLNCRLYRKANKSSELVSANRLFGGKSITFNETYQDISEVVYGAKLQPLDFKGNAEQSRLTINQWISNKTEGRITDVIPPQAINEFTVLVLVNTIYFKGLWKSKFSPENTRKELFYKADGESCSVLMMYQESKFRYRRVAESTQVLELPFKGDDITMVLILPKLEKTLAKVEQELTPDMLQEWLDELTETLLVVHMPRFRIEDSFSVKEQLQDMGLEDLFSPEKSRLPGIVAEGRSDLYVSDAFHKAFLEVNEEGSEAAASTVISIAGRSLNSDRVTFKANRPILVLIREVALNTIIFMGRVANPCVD
Method: as §1, §2, §3

[12] = target: T2, murine antithrombin; assay: ELISA: sdAb coated on the plate, antithrombin added in solution; the concentration is that of antithrombin
Method: (§4) sdAbs recognizing antithrombin (KB-AT-001, -002, -003, -004, -005, -006, and -007) were immobilized (5 microgram/ml) in 10 mM NaHCO₃, 50 mM Na2CO3 (pH 9.5) in a volume of 50 microliter in half-well microtiter plates (Greiner Bio-One, Les Ulis, France) for 16 h at 4° C. After washing the wells three times with 100 microliter/well using Tris-buffered saline (pH 7.6) supplemented with 0.1% Tween-20 (TBS-T), wells were blocked with 100 microliter/well of TBS-T supplemented with 5% skimmed milk for 30 min at 37° C. Wells were washed as described above, and subsequently different concentrations of purified human antithrombin or murine antithrombin (0-5 micromolar diluted in Tris-buffered saline (pH 7.6) supplemented with 5% skimmed milk; 50 microliter/well) were added to each of the immobilized sdAbs and incubated for 2 hours. Wells were then washed three times with 100 microliter/well using TBS-T. Bound antithrombin was probed with peroxidase-labeled polyclonal rabbit anti-antithrombin antibodies (Diagnostica Stago, Asnièrs-sur-Seine, France; Dilution 1/100) for 1 hour at 37° C. with 50 microliter per well. Wells were then washed three times with 100 microliter/well using TBS-T. Residual peroxidase activity was detected by measuring peroxidase-mediated hydrolysis of 3,3′,5,5′-tetramethylbenzidine. OD-values were plotted against antithrombin concentrations (FIG. 1).

[13] = target: T1, human antithrombin; assay: as above
Method: as §4

[14] = target: T3, rabbit antithrombin; assay: ELISA, sdAb coated, plasma 1/4, bound antithrombin probed with polyclonal anti-antithrombin
Method: as §1, §2, §3

[15] = target: T4, rat antithrombin; assay: as above
Method: as §1, §2, §3

[16] = target: T6, porcine antithrombin; assay: ELISA, sdAb coated, plasma 1/4, bound antithrombin probed with polyclonal anti-antithrombin; grade by OD
Method: as §1, §2, §3

[17] = target: T7, canine antithrombin; assay: as above
Method: as §1, §2, §3

[18] = target: T8, bovine antithrombin; assay: as above
Method: as §1, §2, §3

T1 sequence (P01008 33-464 limits assumed): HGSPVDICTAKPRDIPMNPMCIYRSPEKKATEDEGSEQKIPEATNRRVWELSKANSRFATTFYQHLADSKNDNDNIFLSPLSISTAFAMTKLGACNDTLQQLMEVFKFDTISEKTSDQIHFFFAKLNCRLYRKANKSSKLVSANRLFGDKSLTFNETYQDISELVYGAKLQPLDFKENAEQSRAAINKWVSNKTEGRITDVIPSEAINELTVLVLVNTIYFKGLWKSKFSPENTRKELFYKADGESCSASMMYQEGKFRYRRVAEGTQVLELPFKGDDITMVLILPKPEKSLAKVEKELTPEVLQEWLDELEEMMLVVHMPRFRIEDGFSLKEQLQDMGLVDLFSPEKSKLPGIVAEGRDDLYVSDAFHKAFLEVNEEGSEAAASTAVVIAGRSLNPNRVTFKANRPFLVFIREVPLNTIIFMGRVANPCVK
T2 sequence (P32261 33-465 limits assumed): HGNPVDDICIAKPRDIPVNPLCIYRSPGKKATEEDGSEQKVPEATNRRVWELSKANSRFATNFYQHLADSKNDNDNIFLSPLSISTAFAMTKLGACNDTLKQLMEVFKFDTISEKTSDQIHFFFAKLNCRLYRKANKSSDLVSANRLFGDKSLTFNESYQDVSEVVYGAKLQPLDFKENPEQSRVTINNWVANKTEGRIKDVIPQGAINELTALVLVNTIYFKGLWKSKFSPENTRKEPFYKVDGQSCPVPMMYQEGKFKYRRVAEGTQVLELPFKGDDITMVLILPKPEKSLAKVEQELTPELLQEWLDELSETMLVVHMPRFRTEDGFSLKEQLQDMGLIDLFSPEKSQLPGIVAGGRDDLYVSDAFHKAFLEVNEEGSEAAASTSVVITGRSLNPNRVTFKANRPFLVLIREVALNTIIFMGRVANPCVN

% antithrombin neutralization (thrombin amidolytic activity on S-2238, no heparin) [1] [%] | percentage of neutralization of antithrombin-mediated factor Xa inhibition, with LMW-heparin [2] [%] | percentage of neutralization of antithrombin-mediated thrombin inhibition, with unfractionated heparin [2] [%] | OD [3] [od] | OD [4] [od] | OD [5] [od] | OD [6] [od] | OD [7] [od] | Kd [8] [nM] | OD [9] [od] | OD [10] [od] | OD [11] [od] | EC50 (read off the curve) [12] [nM] | EC50 (read off the curve) [13] [nM] | OD [14] [od] | OD [15] [od] | OD [16] [od] | OD [17] [od] | OD [18] [od] | Binder
61 | < 15 | < 5 | 0.1 to 0.5 | 0.1 to 0.5 | – | – | ≥ 0.5 | – | ≤ 0.1 | ≤ 0.1 | ≤ 0.1 | – | – | ≤ 0.1 | ≤ 0.1 | – | – | – | KB-AT-007 (VHH, Monovalent anti-antithrombin single-domain antibody; same CDRs as KB-AT-001; also called sdAb KB-AT-007) VHH: QVQLQQSGGGLVQAGGSLRLSCAASGRTFRNYVMGWFRQAPGKDPEFIAGINRSGAITYYGDSVKGRFTISRDNAKNTVSLQMNSLEPEDTAVYYCAAGETTWSIRRDDYDYWGQGTQVTVSS
57 | < 15 | < 5 | 0.1 to 0.5 | 0.1 to 0.5 | – | – | 0.1 to 0.5 | – | ≤ 0.1 | ≤ 0.1 | ≤ 0.1 | ~400 | – | ≤ 0.1 | ≤ 0.1 | – | – | – | KB-AT-005 (VHH, Monovalent anti-antithrombin single-domain antibody; also called sdAb KB-AT-005) VHH: EVQLVESGGGLVQPGGSLRLSCEASGRDFNDAALGWSRQVPGKARETVAMITSGGVRNYAETVKDRFTISRDNAKNTVYLDMNNLQPDDTGVYYCKADSFKGDYDTSWYLYWGQGTQVTVSS
58 | < 15 | < 5 | 0.1 to 0.5 | 0.1 to 0.5 | ≥ 0.5 | 0.1 to 0.5 | ≥ 0.5 | 22 | – | – | ≤ 0.1 | – | ~500 | – | – | 0.1 to 0.5 | 0.1 to 0.5 | – | KB-AT-006 (VHH, Monovalent anti-antithrombin single-domain antibody; also called sdAb KB-AT-006) VHH: QVQLQQSGGGLVQAGGSLRLSCAASGRTFSNNGMGWFRQAPGKEREFVAAISWSSGSTYYADSVKGRYTISRDNAKNTVYLQMNSLKPEDTAVYYCAARTRYNSGYFTRNYDYWGQGTQVTVSS

The next lines start with the binder.

Binder | % antithrombin neutralization (thrombin amidolytic activity on S-2238, no heparin) [1] [%] | percentage of neutralization of antithrombin-mediated factor Xa inhibition, with LMW-heparin [2] [%] | percentage of neutralization of antithrombin-mediated thrombin inhibition, with unfractionated heparin [2] [%] | OD [3] [od] | OD [4] [od] | OD [5] [od] | OD [6] [od] | OD [7] [od] | Kd [8] [nM] | OD [9] [od] | OD [10] [od] | OD [11] [od] | EC50 (read off the curve) [12] [nM] | EC50 (read off the curve) [13] [nM] | OD [14] [od] | OD [15] [od] | OD [16] [od] | OD [17] [od] | OD [18] [od]
KB-AT-001 (VHH, Monovalent anti-antithrombin single-domain antibody; also called sdAb KB-AT-001) VHH: QVQLQQSGGDLAQRGGSLRLSCAASGRTFRNYVMGWFRQAPGKDPEFIAGINRSGAITYYGDSVKGRFTISRDNAKNTVSLQMNSLEPEDTAVYYCAAGETTWSIRRDDYDYWGQGTQVTVSS | 62 | < 15 | < 5 | ≥ 0.5 | 0.1 to 0.5 | 0.1 to 0.5 | 0.1 to 0.5 | ≥ 0.5 | 14 | ≤ 0.1 | ≤ 0.1 | ≤ 0.1 | ~600 | ~700 | – | – | – | – | –
KB-AT-002 (VHH, Monovalent anti-antithrombin single-domain antibody; also called sdAb KB-AT-002) VHH: QVQLVQSGGGLVQAGGSLRLSCAASGRTFNNNGMGWFRQAPGKEREFVAAISWSGGSTYYADSVKGRYIMSRDNAKNTVYLQMNSLKPEDTAVYYCAARTRYNSGLFSRNYDYWGQGTQVTVSS | 65 | < 15 | < 5 | ≥ 0.5 | ≥ 0.5 | ≥ 0.5 | ≥ 0.5 | ≥ 0.5 | 4 | – | – | – | ~500 | ~600 | – | – | ≥ 0.5 | ≥ 0.5 | ≥ 0.5
KB-AT-004 (VHH, Monovalent anti-antithrombin single-domain antibody; also called sdAb KB-AT-004) VHH: VQLQQSGGGLVQPGGSLRLSCAASAMTFSIRAWAWYRQAPGKQRELVASIGTGDITNYADSVKGRFTISRDNAKNTFYLQMNSLKPEDTAVYYCNGYRSTYAWGQGTQVTVSS | 55 | < 15 | < 5 | ≥ 0.5 | 0.1 to 0.5 | – | 0.1 to 0.5 | 0.1 to 0.5 | – | – | – | ≤ 0.1 | – | – | ≤ 0.1 | – | 0.1 to 0.5 | 0.1 to 0.5 | –

— patent US20190100602A1 (INSERM INSTITUT NATIONAL DE LA SANT ET DE LA RECHERCHE M …, published 2019)
